Experimental data taken from patent publication US20080311125A1.

Biological target: HIV-1 gp120 (HIV-1)
Test: ELISA, coated gp120; binding relative to scytovirin

Which percent binding in comparison to scytovirin does the source give for “SD2 (residues 49-95 of scytovirin with a substitution of serine at position 55) (peptide)” here?
The percent binding in comparison to scytovirin was 50%.
